According to patent US20230174629A1:

Legend:
[1] = molecular target: MPER-Fluc-Bpe fusion protein (Bordetella pertussis (Fluc-Bpe); HIV-1 (gp41 MPER epitope)); test: negative stain EM 2-D class averages, 1 dimer:0.3 Fab molar ratio
[2] = molecular target: MPER-AdiC fusion protein (Salmonella enterica (AdiC); HIV-1 (gp41 MPER epitope)) (UniProt P60065); test: gel filtration chromatography, complex against AdiC alone
[3] = molecular target: MPER-GlpF fusion protein (E. coli (GlpF); HIV-1 (gp41 MPER epitope)); test: size exclusion chromatography, complex against GlpF alone
[4] = molecular target: MPER-AdiC fusion protein (Salmonella enterica (AdiC); HIV-1 (gp41 MPER epitope)) (UniProt P60065)
[5] = molecular target: MPER-Fluc-Bpe fusion protein (Bordetella pertussis (Fluc-Bpe); HIV-1 (gp41 MPER epitope)); test: gel filtration chromatography, complex against fusion protein alone

Row | Substance | percent of total particles in the doubly-occupied class [1] | elution volume shift [2] | elution volume shift [3] | stoichiometry (Fab per AdiC dimer) (Fab per AdiC dimer) [4] | shift in the retention time [5]
1 | VRC42 Fab fragment | 2.5% |  |  |  | 
2 | 10E8v4 Fab fragment |  | 0.5 mL | 1 mL | 1 | 2 mL
